System: growth of yeast strains under 51 stress conditions
Test: Growth assays in 51 stress conditions (Fig. 1E-F, S2D, S5B)
Assay type: cell-based, Saccharomyces cerevisiae
Parameters: key to Growth (Fig. S2D) / growth of ABP1 SH3-swapped strains in stress condition: log2 colony size, average of median per strain (growth score)
Conditions: ABP1 SH3-swapped strains
Procedure, shortened: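 Yeast WT, SH3-deleted, KO, SH3-swapped and SH3-shuffled strains pinned in 1536 format, 12 replicates each; pregrown on YPD 2 days at 30 °C, then replicated onto 51 media at 37 °C and imaged every 2 h. Growth score = mean of per-plate median log2 colony size at 74 h.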

B1: LSB1 (protein, UniProt P53281 2-241, looked up)
LAS seventeen-binding protein …: SASLVNRSLKNIRNELEFLKESNVISGDIFELINSKLPEKWDGNQRSPQNADTEEYVEALYDFEAQQDGDLSLKTGDKIQVLEKISPDWYRGKSNNKIGIFPANYVKPAFTRSASPKSAEAASSSTVSRPSVPPPSYEPAASQYPSQQVSAPYAPPAGYMQAPPPQQQQAPLPYPPPFTNYYQQPQQQYAPPSQQAPVEAQPQQSSGASSAFKSFGSKLGNAAIFGAGSAIGSDIVNSIF
Bathophenanthroline.0.1uM
  Growth (Fig. S2D): 10.7989
Bathophenanthroline.10uM
  Growth (Fig. S2D): 10.6305
Bathophenanthroline.1uM
  Growth (Fig. S2D): 10.7471
CaCl2.100mM
  Growth (Fig. S2D): 10.8093
CaCl2.250mM
  Growth (Fig. S2D): 10.7989
CaCl2.500mM
  Growth (Fig. S2D): 10.2904
Caffein.10mM
  Growth (Fig. S2D): 10.1077
Caffein.2mM
  Growth (Fig. S2D): 10.9656
CdCl2.100uM
  Growth (Fig. S2D): 9.41
CdCl2.10uM
  Growth (Fig. S2D): 10.8732
CdCl2.50uM
  Growth (Fig. S2D): 9.85
CuSO4.1mM
  Growth (Fig. S2D): 10.4529
CuSO4.5mM
  Growth (Fig. S2D): 7.9447
Cycloheximide.0.05.uM
  Growth (Fig. S2D): 11.0938
Cycloheximide.0.2.uM
  Growth (Fig. S2D): 10.6171
Cycloheximide.0.5.uM
  Growth (Fig. S2D): 10.0964
DMSO.2.
  Growth (Fig. S2D): 11.0559
DMSO.6.
  Growth (Fig. S2D): 9.9059
DMSO.8.
  Growth (Fig. S2D): 9.2023
Ethanol.2.
  Growth (Fig. S2D): 10.7659
Ethanol.6.
  Growth (Fig. S2D): 10.2982
Ethanol.8.
  Growth (Fig. S2D): 10.0154
Galactose.2.
  Growth (Fig. S2D): 10.7736
Glycerol.2.
  Growth (Fig. S2D): 9.808
Hydroxyurea.25mM
  Growth (Fig. S2D): 10.7374
Hygromycin.190uM
  Growth (Fig. S2D): 11.0084
Hygromycin.19uM
  Growth (Fig. S2D): 10.9924
Hygromycin.95uM
  Growth (Fig. S2D): 10.9928
MMS.0.004.
  Growth (Fig. S2D): 10.965
MMS.0.02.
  Growth (Fig. S2D): 10.7457
MMS.0.04.
  Growth (Fig. S2D): 10.0868
Menadione.100uM
  Growth (Fig. S2D): 10.5379
Menadione.200uM
  Growth (Fig. S2D): 10.4102
Menadione.50uM
  Growth (Fig. S2D): 10.7973
NaCl.0.25M
  Growth (Fig. S2D): 10.8176
NaCl.1M
  Growth (Fig. S2D): 9.837
Nitroquinoline.10uM
  Growth (Fig. S2D): 10.6531
Nitroquinoline.50uM
  Growth (Fig. S2D): 10.6066
Nystatin.0.01uM
  Growth (Fig. S2D): 10.9737
Nystatin.0.1uM
  Growth (Fig. S2D): 10.9631
Raffinose.2.
  Growth (Fig. S2D): 11.0015
Rapamycin.10nM
  Growth (Fig. S2D): 9.7845
Rapamycin.50nM
  Growth (Fig. S2D): 9.381
SC.pH3
  Growth (Fig. S2D): 10.3983
SC.pH6
  Growth (Fig. S2D): 10.9866
SDS.0.01.
  Growth (Fig. S2D): 10.9788
SDS.0.02.
  Growth (Fig. S2D): 10.9881
SDS.0.05.
  Growth (Fig. S2D): 10.872
Sorbitol.10mM
  Growth (Fig. S2D): 11.0061
Sorbitol.1mM
  Growth (Fig. S2D): 11.049
Sorbitol.5mM
  Growth (Fig. S2D): 10.9179

B2: HSE1 (protein, UniProt P38753 2-452, looked up)
Class E vacuolar …: SSSAIKIRNALLKATDPKLRSDNWQYILDVCDLVKEDPEDNGQEVMSLIEKRLEQQDANVILRTLSLTVSLAENCGSRLRQEISSKNFTSLLYALIESHSVHITLKKAVTDVVKQLSDSFKDDPSLRAMGDLYDKIKRKAPYLVQPNVPEKHNMSTQADNSDDEELQKALKMSLFEYEKQKKLQEQEKESAEVLPQQQQQHQQQNQAPAHKIPAQTVVRRVRALYDLTTNEPDELSFRKGDVITVLEQVYRDWWKGALRGNMGIFPLNYVTPIVEPSKEEIEKEKNKEAIVFSQKTTIDQLHNSLNAASKTGNSNEVLQDPHIGDMYGSVTPLRPQVTRMLGKYAKEKEDMLSLRQVLANAERSYNQLMDRAANAHISPPVPGPALYAGMTHANNTPVMPPQRQSYQSNEYSPYPSNLPIQHPTNSANNTPQYGYDLGYSVVSQPPPGYEQ
Bathophenanthroline.0.1uM
  Growth (Fig. S2D): 10.8649
Bathophenanthroline.10uM
  Growth (Fig. S2D): 10.6324
Bathophenanthroline.1uM
  Growth (Fig. S2D): 10.7994
CaCl2.100mM
  Growth (Fig. S2D): 10.826
CaCl2.250mM
  Growth (Fig. S2D): 10.8072
CaCl2.500mM
  Growth (Fig. S2D): 10.2874
Caffein.10mM
  Growth (Fig. S2D): 10.0363
Caffein.2mM
  Growth (Fig. S2D): 11.0184
CdCl2.100uM
  Growth (Fig. S2D): 9.591
CdCl2.10uM
  Growth (Fig. S2D): 10.9135
CdCl2.50uM
  Growth (Fig. S2D): 9.882
CuSO4.1mM
  Growth (Fig. S2D): 10.4158
CuSO4.5mM
  Growth (Fig. S2D): 7.9665
Cycloheximide.0.05.uM
  Growth (Fig. S2D): 11.0571
Cycloheximide.0.2.uM
  Growth (Fig. S2D): 10.6529
Cycloheximide.0.5.uM
  Growth (Fig. S2D): 10.099
DMSO.2.
  Growth (Fig. S2D): 11.0462
DMSO.6.
  Growth (Fig. S2D): 9.883
DMSO.8.
  Growth (Fig. S2D): 9.238
Ethanol.2.
  Growth (Fig. S2D): 10.7698
Ethanol.6.
  Growth (Fig. S2D): 10.2684
Ethanol.8.
  Growth (Fig. S2D): 10.106
Galactose.2.
  Growth (Fig. S2D): 10.7486
Glycerol.2.
  Growth (Fig. S2D): 9.782
Hydroxyurea.25mM
  Growth (Fig. S2D): 10.7604
Hygromycin.190uM
  Growth (Fig. S2D): 10.981
Hygromycin.19uM
  Growth (Fig. S2D): 10.9309
Hygromycin.95uM
  Growth (Fig. S2D): 11.0429
MMS.0.004.
  Growth (Fig. S2D): 11.0045
MMS.0.02.
  Growth (Fig. S2D): 10.6778
MMS.0.04.
  Growth (Fig. S2D): 10.0151
Menadione.100uM
  Growth (Fig. S2D): 10.5782
Menadione.200uM
  Growth (Fig. S2D): 10.4179
Menadione.50uM
  Growth (Fig. S2D): 10.792
NaCl.0.25M
  Growth (Fig. S2D): 10.7546
NaCl.1M
  Growth (Fig. S2D): 9.884
Nitroquinoline.10uM
  Growth (Fig. S2D): 10.6974
Nitroquinoline.50uM
  Growth (Fig. S2D): 10.5671
Nystatin.0.01uM
  Growth (Fig. S2D): 11.0224
Nystatin.0.1uM
  Growth (Fig. S2D): 11.0326
Raffinose.2.
  Growth (Fig. S2D): 11.0272
Rapamycin.10nM
  Growth (Fig. S2D): 9.925
Rapamycin.50nM
  Growth (Fig. S2D): 9.396
SC.pH3
  Growth (Fig. S2D): 10.4058
SC.pH6
  Growth (Fig. S2D): 10.9649
SDS.0.01.
  Growth (Fig. S2D): 10.9823
SDS.0.02.
  Growth (Fig. S2D): 10.9972
SDS.0.05.
  Growth (Fig. S2D): 10.8418
Sorbitol.10mM
  Growth (Fig. S2D): 11.0121
Sorbitol.1mM
  Growth (Fig. S2D): 11.0602
Sorbitol.5mM
  Growth (Fig. S2D): 10.8937

B3: HOF1 (protein, UniProt Q05080 1-669, looked up)
Cytokinesis protein 2: MSYSYEACFWDPNDNGVNILLGHISQGIRSCDSMILFFKQRSELEKDYARRLGAITGKLDKDIGTNMDYGKLNETFNVVLSVEKARAQSHSKQSEILFRQIYTDTKAFAANLQARYTTLSGKIERLRMDKFNKKKGCEVLQKKLQDAQIRFRDLQLNENNMIGAKRVEHNKRELLKWESNSQEYKVQLDVLKQEYKASQKFWIHEWAQLSCELQEMENARISFLQSKLQQFATSSMETYILEQTKMDMLTNHLNSFTAADEISTFSKENGTGRLKHKTSKGDMNSSANWAQMSSISTTSKKTESYMDNIRKLSSQLKETENKRKLASIDKYEKPLPSPEVTMATQFRNSTPVIRNETKVVANPTLSLRSSPVQLQSNVDDSVLRQKPDKPRPIVGEEQLKPDEDSKNPDEKGLMVHKRNQSLSSPSESSSSNPTDFSHIKKRQSMESMTTSVSSMANSIDDSQRFAKSWNSSNRKRKSMSHLQVPSSASSRSDDGGRTPNSAHNLNEDDYNTRRDTSTSTILFKPPVAVRGTSRGHTHRQSMIMQDSSNPIEDALYEMERIQSSSKPGTKTGNIMDERGVVRDRGITVTLPIVTSEGFPVIEYAKAMYPLIGNEAPGLANFHKGDYLLITEIVNKDWYKGEVYDNDRIDRNHRIGLIPYNFIQLLHQGL
Bathophenanthroline.0.1uM
  Growth (Fig. S2D): 10.8727
Bathophenanthroline.10uM
  Growth (Fig. S2D): 10.6716
Bathophenanthroline.1uM
  Growth (Fig. S2D): 10.8166
CaCl2.100mM
  Growth (Fig. S2D): 10.8864
CaCl2.250mM
  Growth (Fig. S2D): 10.8461
CaCl2.500mM
  Growth (Fig. S2D): 10.3385
Caffein.10mM
  Growth (Fig. S2D): 10.1794
Caffein.2mM
  Growth (Fig. S2D): 11.0235
CdCl2.100uM
  Growth (Fig. S2D): 9.561
CdCl2.10uM
  Growth (Fig. S2D): 10.9284
CdCl2.50uM
  Growth (Fig. S2D): 9.924
CuSO4.1mM
  Growth (Fig. S2D): 10.5096
CuSO4.5mM
  Growth (Fig. S2D): 8.102
Cycloheximide.0.05.uM
  Growth (Fig. S2D): 11.0987
Cycloheximide.0.2.uM
  Growth (Fig. S2D): 10.6706
Cycloheximide.0.5.uM
  Growth (Fig. S2D): 10.177
DMSO.2.
  Growth (Fig. S2D): 11.0794
DMSO.6.
  Growth (Fig. S2D): 9.956
DMSO.8.
  Growth (Fig. S2D): 9.269
Ethanol.2.
  Growth (Fig. S2D): 10.828
Ethanol.6.
  Growth (Fig. S2D): 10.3088
Ethanol.8.
  Growth (Fig. S2D): 10.1098
Galactose.2.
  Growth (Fig. S2D): 10.8257
Glycerol.2.
  Growth (Fig. S2D): 9.711
Hydroxyurea.25mM
  Growth (Fig. S2D): 10.8274
Hygromycin.190uM
  Growth (Fig. S2D): 11.0188
Hygromycin.19uM
  Growth (Fig. S2D): 11.0238
Hygromycin.95uM
  Growth (Fig. S2D): 11.0846
MMS.0.004.
  Growth (Fig. S2D): 10.9957
MMS.0.02.
  Growth (Fig. S2D): 10.7428
MMS.0.04.
  Growth (Fig. S2D): 9.974
Menadione.100uM
  Growth (Fig. S2D): 10.6873
Menadione.200uM
  Growth (Fig. S2D): 10.4637
Menadione.50uM
  Growth (Fig. S2D): 10.8466
NaCl.0.25M
  Growth (Fig. S2D): 10.8422
NaCl.1M
  Growth (Fig. S2D): 9.66
Nitroquinoline.10uM
  Growth (Fig. S2D): 10.7373
Nitroquinoline.50uM
  Growth (Fig. S2D): 10.5646
Nystatin.0.01uM
  Growth (Fig. S2D): 10.9834
Nystatin.0.1uM
  Growth (Fig. S2D): 10.9984
Raffinose.2.
  Growth (Fig. S2D): 11.035
Rapamycin.10nM
  Growth (Fig. S2D): 9.895
Rapamycin.50nM
  Growth (Fig. S2D): 9.528
SC.pH3
  Growth (Fig. S2D): 10.4278
SC.pH6
  Growth (Fig. S2D): 10.9986
SDS.0.01.
  Growth (Fig. S2D): 11.0079
SDS.0.02.
  Growth (Fig. S2D): 11.0441
SDS.0.05.
  Growth (Fig. S2D): 10.886
Sorbitol.10mM
  Growth (Fig. S2D): 11.0139
Sorbitol.1mM
  Growth (Fig. S2D): 11.1055
Sorbitol.5mM
  Growth (Fig. S2D): 10.9626

From PMC7954794, “Protein context shapes the specificity of SH3 domain-mediated interactions in vivo” (Nature Communications, 2021)
